From a protein production outcome set (Wang et al. 2014)

Test: label from the status in PepcDB records

| Sequence | protein production |
| --- | --- |
| MQDSLGIMIKKANNALARDSDHYAKSLGLTGMQISTINFIANNEQHHDLFQRDLELEFNIRKATCSSLVSKMEAADLLIRVPAKDDGRYKRLLLTPKARQLATKIERFFETSEQRMATILGVNTAETYEALRQIAVAFSTPTHAPENWYLEHHHHHH | not failed |
| MQDSRPHPHDWNVSTDEAKRIQRRLASEVTERALPDGGETVAGIDVSVRDDTAQAAVSVLRLPELDVVDEATHRCEVPFPYVPGLLSFREMPAVLPALERLHSTPDVFVTDSHGAAHPRRFGLACHLGVLLDAPAIGVAKSILVGAPQGELGPEKGSRVPLVDDGETVGTVLRTRTDVNPVYVSVGHRCTLDGAADLMLDCSPRYKIPEPTRQAHKLSRAEGLEHHHHHH | not failed |
| MQDTLPSRREIAPDSTRPPPTHDDVRAQLNRIITSPQFPHIGRSAAFLTYAVEETLAGRADRIKGYSIAVEVFKRSNGFTQDDPVVRIEAGRLRRVLERYYFTAGQHDPIRIDIPKGGYVPTFAWTSPSEDNSDAEDQSLPPEHASSLFPGLRRHIWTVVLGLIVIVGGASALAGLTSIRFSSIWPFATADITESDGPTLVIAPFANLGDGPQAELYTTGLTEELLTALPRFKEIKVFGRETSRSLPPEVETSRIRGELGARFLLAGGVRVSGSRVRVTARLLDTQTDEILWSQTYDDDIGVRDLFTIQSDVANKVATAVAQPYGIMAQADVSNPPPDDLGSYGCTLSFYAYRAELSIERHGEVRNCLESAVARYPSFATAWAMLSIIYLDEDRFRFNRKPISSTPIDRSFQAARRAVQLDPGNTRALQALMTTLFFSQRVSEALQIGERALATNPNDTELLAEFGTRLAMSGEWQRGAALLDRAIALNPAGGGYYRGTRALAAYMLHDDKTAVIEIRQADLQKFPLFHAVAAVIYVDAGMIDDARSEAARFNEMRPDFIPNIVAELKVRNFQPQDRARMIADLRTAGLLVRDEVQATMSLPIDDSKALQPR | failed |
| MQEEFMKKNSIIAGLFVFCITTAGIGYTVYNSVYSDRQKHRINETAKLDSAKAPNELKDGEYTASAEGYEGPITVKVVIKEGKIFSVEVLSHNETPEYYEMAKKILQTIVEKNTFNVDSISGATVTSDAIKVAVYKALVQAGAKTSDVAEGLEKENEELRDKEKAKLLAKQSSAVAGKVGFNRNNLKDGTFIGVGRGYNGLIKVSISIKNGVIYDARVISHSDDYPYFTWASSVLNKVISGSTNIDTVSGATVSSRGILNAVKDALRKASNGNNSLDINSPDETEQNIPRQNRREIEQIKKYFKGLKDGVYFGKSNGYYTNSIEVKVTVKDGKIAKIELTKNDDDESYFDNKKAGILGERIISNQSTNIDTISGATTSSKGFINAVVNALEKAVDSNGSDADKYIYSPKTIIANVGETIGLQKIRDALEKLPEDVQINIKNNADTSSEGKTKIVVELIFKDNSKKIVEIPVLVNSKVDGSYKFLSAEEVKNLDKNVNYPDGVYYGDSYGFVSNKPIPVKVTIKNNKIENVELVKEELNRLKGVTSPGNVDDGGIFQEKFYTIIDRIKNMQKFESLIYKFEVLRDATSKVMEEARGKEQTVEVYRAALDKVIGKHNFGKWGLSIDESHLKGERNIHDRIFSLLKVYVKEELGYDGSDYDAVSGATFTATGTATSIKNALLKAKNFDFYDMRVDDSNFKTSYKEGDKLDLKDLKVTIYKKNNQKITVSYSDFGKYGLKVVDEYNKELKDGLVLNKENLGYNVTDGLRLKVVHEESKSFKFLNTILISKSTTKNFEISGIKIKAKDGSEWYDTKGYNTTDFIQNLTVSKEVAEKLNNKEIEFKIIAKDKKSSEEIEIPLRQAQNKTLIADFVSGEYTLDVIEKYKGVLFNNTFRIKTKVEGKIPKAFLYKETPETLIISKGTEITESKIRSVLKNLPDKTDISVLRGVDVNKVNETVLQKLLIKLKFDDGSEKEIEIDVIVKEKVISMADKYVYKPKDLITIKGKEVELSHLKNHLDDLPEGTKIEIIEKANVSEVNETGTLMKVSLEFTDKSTKDISINVVVKDTAPNKAEEFKILYPEIKNEIVNVVVKDPKYGNMKNFAETVKWGAFSDFAINRDLKLKSRSADISRIEVLKEPDRSKLGDQKGKIRLSFNDGSKLELEISVKIVPYPVYKIFRLTSNKTQYRLEDKFNLNDLKVTLFISNKLENESDWDTTGTPVLNIPYSDFYLFGIKVVDLDSKKEIENNSIISTLIKNKKLSVGAYCENLIQKNNYESGKKLVEIFNIKITNIDEWKESKKNIVEIKDEKNSKKADDSNKTGKVMASKKEIKNVDNLDNTSEKNKTIESENTTKDKVQRKDSDSGGKLSDDSSEKQNLKTNEKED | failed |
| MQEGQNRKTSSLSILAIAGVEPYQEKPGEEYMNEAQLAHFRRILEAWRNQLRDEVDRTVTHMQDEAANFPDPVDRAAQEEEFSLELRNRDRERKLIKKIEKTLKKVEDEDFGYCESCGVEIGIRRLEARPTADLCIDCKTLAEIREKQMAG | not failed |
| MQEIISFIVETASAWGYLGIIILMTLESCFIPFPSEVVMIPAGYLAHKGELDITLCILSGTLGSVLGALINYYICFFWGKNFVLKWGKYFGINEVKFAKFEEFFNKHGEFSTFTCRLLPGIRQYISMPAGLVKMKLVNFILFTALGSAIWVAILVFLGYYIGQNEELIKTYLTQILIIIIVFVILASLIYISKSKSLLKRLKFYLLRFVWRF | failed |
| MQEIMYLAPELVLVATGLVILLTGVFLSPQSKNILGYLATLGTLAAIFLTVKSFGLLTMEGFSVQYTIFSETLSIDALSQFFKLVFLAVALIVSIASIKYTENSDHTEEFYTLVLFATFGMMIVASANDLILLFCAFELASLATFALAGFEKQNARSLEGAMKYFVIGSVSAALMLFGLSFVYGATGTTSIPLIAQNPGLLTGNPIGIVAIVLLTAGFGFKMALVPFHMWAPDTYQGSPSVVSALLAAGSKKMGFVAAFRVFIIALAALQPDWQFMFTLLAVVTMTFGNVVAVAQTSVKRMLAYSSLAQAGYIAMAFAVMTPVALAGGIMYTLAHAFMKAGAFIAAAAVVWMITSEKTGNLDIPDHLDSFRGLGKRMPLAALCMTVFVFALAGIPPTAGFMAKFVLFSSTIQAGMTWLAVIAILNSALSLFYYARLVKYMYFMPPEGKTEKVSIPFPYAAALLVAVAGVLVMGLWPEPFVELAMKAAMVLVPF | failed |
| MQENKKIDENIDDFLKIVVDLNHIQIEVRDEVQAILLLSSLPSRYDGLVETMKYSNSREKLRLNDVMVAARDKEREMSQNNRLIAEGHYARRRPVGKNNNQGNKGKNRSWSKSADGKRVCWICGKEKHFNEQCYKWLERNKPK | failed |
| MQESWVEGVEDIRMLGSSLRNDSAAAGRACARTRAGPPAESRKKKVQAERRRREGVANAPTRALRFLRARRAWSPRLAAPGPLTLVAEGEEGRNRVPAAKHPCLRTMSPEPAPPEPQGVRSSLEEPSAEPLGQGSAAFLAGDYEVAAELFRSLLAGLAQPERGLCLQLGEALARAGRLPEAIGAFRGAALLGPLQPGELSELASGLARALGLREKRPPVAARPGGCASGTSGPVAPRDLLGCPRCGRLLYKPVTLSSGLTVCKRCVEQVPVRAQARRVNVVLSGLLERCFPAECRLRRLACQARGLQRQQQPEAALLRCQQALDMAPDDSSLLLLRAELYLTMKNYEQALQDADTVCQREPLLTKGHHIKAQILSGLGRNKEVLKEFIYCLALNPECNSAKKETQKVICEVFFSASENEQQNSAPSTQTGPKALCDGQMSPQNPLEEAGGHANADSPKTPSEKPDVPENTNSSVLYFILGLHCEEDKKALEGVIPAAPSGTLKRQLPSDAEDKELDVNTPEKIPKKDADSSPQRNANSLEEEPEFTIDATDFECALCMRLLFEPVTTPCGHTFCLKCLERCLDHAPHCPLCKDKLSELLATRNFNVTVLTEELIFRYLPDELSDRKRVYDEEMSELSHLTRDVPIFVCAMAFPTVPCPLHVFEPRYRLMIRRCMETGTKRFGMCLSAENAGISEYGCMLEIKDVRTFPDGSSVVDAVGISRFRVLSHRHRDGYNTADIEYLEDEKVEGAEFEELTALHESVYQQSVSWFASLQDHMKKQILSHFGSMPDREPEPQSNSSGPAWSWWILAVLPLERKAQLAILGMGSLKERLLAIRRILVIITRKLNSRQEMANNAQRDN | failed |
| MQETMLDLRTVYECNRCLGCKTLHPQVGIINLENPSLEEDAVKFEFYAVLLIEDCPGGCCCCGRKYYDYSNATMVFLTPGEIFRMSKENTLPDKGYLLAFHPDLLFRTSLKNHIKNYTFFHYRKEEALHLSRRETEKVTCCLSNIEDELHHPIDTHSSIILSRHIELLLDYCTRYYERQFITRENKNKALLENMERLFVEYIASGRLQGGKLPTSGYMAGELDLSVAYFDDLLKFETGKTLEEYLQLKRLDIARHMLLQDGHTPAAVARKLGYPNVQCFSVLFKKITGVAPSDYRLSQN | not failed |
| MQFEVLKRFFPKESLKNCKGALWVHTASIGEFNTFLPILKELKREHRILLTYFSPRAREYLKTKSDFYDCLHPLPLDNPFSVKRFEELSKPKALIVVEREFWPSLIIFTKVPKILVNAYAKGSLIEKILSKKFDLIIMRTQEDVEKFKTFGAKRVFSCGNLKFICQKGKGIKLKGEFIVAGSIHTGEVEIILKAFKEIKKTYSSLKLILVPRHIENAKIFEKKARDFGFKTSFFENLEGDVILVDRFGILKELYPVGKIAIVGGTFVNIGGHNLLEPTCWGIPVIYGPYTHKVNDLKEFLEKEGAGFEVKNETELVTKLTELLSVKKEIKVEEKSREIKGCYLEKLREFLRGL | failed |
| MQFQIGDMVARKSYQMDVLFRIIGIEQTSKGNSIAILHGDEVRLIADSDFSDLVAVKKDEQMMRKKKDESRMNESLELLRQDYKLLREKQEYYATSQYQHQEHYFHMPGKVLHLDGDEAYLKKCLNVYKKIGVPVYGIHCHEKKMSASIEVLLDKYRPDILVITGHDAYSKQKGGIDDLNAYRHSKHFVETVQTARKKIPHLDQLVIFAGACQSHFESLIRAGANFASSPSRVNIHALDPVYIVAKISFTPFMERINVWEVLRNTLTREKGLGGIETRGVLRIGMPYKSN | not failed |
| MQFRSIIRIVGLLLALFSVTMLAPALVALLYRDGAGVPFVTTFFVLLFCGAMCWFPNRRHKHELKSRDGFLIVVLFWTVLGSAGSLPFLIADNPNISVTDAFFESFSALTTTGATVIVGLDELPKAILFYRQFLQWFGGMGIIVLAVAILPVLGIGGMQLYRAEIPGPVKDTKMTPRIAETAKALWYIYLSLTIACAVAFWLAGMTPFDAISHSFSTIAIGGFSTHDASMGYFDSYAINLITVVFLLISACNFTLHFAAFASGGVHPKYYWKDPEFRAFIFIQVLLFLVCFLLLLKHHSYTSPYDAFDQALFQTVSISTTAGFTTTGFADWPLFLPVLLLFSSFIGGCAGSTGGGMKVIRILLLTLQGARELKRLVHPRAVYTIKVGGSALPQRVVDAVWGFFSAYALVFVVCMLGLIATGMDELSAFSAVAATLNNLGPGLGEVALHFGDVNDKAKWVLIVSMLFGRLEIFTLLILLTPTFWRS | not failed |
| MQGENAPQRSAEVTILDKQAIDIPHPLPGQDDQEFWIYVQKGRLGPKREFQVGIHYYHALNPGDKGVLTYQGQRFLHFALKRLEHHHHHH | not failed |
| MQGHHFGGDMSNSEAIDNTTAKLRLAQSSSLLALALLIGSAPAQAADTDWGWLAIGAPAATAQGWTGKGVVIGVVDTGIDFSHPALSGRAFDYNYGSFVAGSNHPHATHVAGIIGATDINRGMEGVAPDVRFSSMKIFTGAGGSYLGDAAVADAYDGAIGSGVRIFNNSWGSSDSIANFTSREELLAHEPLLVGAFTRAVNADAVLVWSTGNDGRSQPSWQAAAPYYIQELKANWIAVTSVGENGTIASYANACGVAKAWCLAAPGGDFNPGIYSTIPGKDYGYMSGTSMAAPYVTGATAIARQMFPKASGAQLAQIVLQTSRDIGAPGIDDVYGWGLLAVDNIVDTINPRGAALFASAAWGRFTTLSAIGNTVLDRISDLRNGRGDVVTAPLAFAGQNGAFSQSGSNPRNAYAADLAAAPQPSPLGFGSVWARGLAGRATLSGSASSPQTTADISGGLLGFDLVNNQNLLVGIAGGGSNTNLTASGISDKAGAQAWHVLGYAAAMYGPAFVNVAGGWNSFDQSYQRRVIPGTAGTVFASTISAAQSSSTDVAYFFQGRGGWTFQTEVGRIEPYVHGATRNQSFGGFSETNASIFSLSVPSASLSEAEYGAGVRWACAPIKTVDQRVAVAPTIDLAYVRFTNDGPIQVETNLLGTSVVGQTAALGADAIRVAAGLSLTSLAGISGSFGYTGTVRDAATAHTVSGGLSIKF | failed |
